The values below come from patent US20250092426, “CAS ENDONUCLEASES AND RELATED METHODS” (Flagship Pioneering Innovations VII, LLC, published 2025).

The data set addresses T1, CasEnd-6 (synthetic construct).
T1 chain: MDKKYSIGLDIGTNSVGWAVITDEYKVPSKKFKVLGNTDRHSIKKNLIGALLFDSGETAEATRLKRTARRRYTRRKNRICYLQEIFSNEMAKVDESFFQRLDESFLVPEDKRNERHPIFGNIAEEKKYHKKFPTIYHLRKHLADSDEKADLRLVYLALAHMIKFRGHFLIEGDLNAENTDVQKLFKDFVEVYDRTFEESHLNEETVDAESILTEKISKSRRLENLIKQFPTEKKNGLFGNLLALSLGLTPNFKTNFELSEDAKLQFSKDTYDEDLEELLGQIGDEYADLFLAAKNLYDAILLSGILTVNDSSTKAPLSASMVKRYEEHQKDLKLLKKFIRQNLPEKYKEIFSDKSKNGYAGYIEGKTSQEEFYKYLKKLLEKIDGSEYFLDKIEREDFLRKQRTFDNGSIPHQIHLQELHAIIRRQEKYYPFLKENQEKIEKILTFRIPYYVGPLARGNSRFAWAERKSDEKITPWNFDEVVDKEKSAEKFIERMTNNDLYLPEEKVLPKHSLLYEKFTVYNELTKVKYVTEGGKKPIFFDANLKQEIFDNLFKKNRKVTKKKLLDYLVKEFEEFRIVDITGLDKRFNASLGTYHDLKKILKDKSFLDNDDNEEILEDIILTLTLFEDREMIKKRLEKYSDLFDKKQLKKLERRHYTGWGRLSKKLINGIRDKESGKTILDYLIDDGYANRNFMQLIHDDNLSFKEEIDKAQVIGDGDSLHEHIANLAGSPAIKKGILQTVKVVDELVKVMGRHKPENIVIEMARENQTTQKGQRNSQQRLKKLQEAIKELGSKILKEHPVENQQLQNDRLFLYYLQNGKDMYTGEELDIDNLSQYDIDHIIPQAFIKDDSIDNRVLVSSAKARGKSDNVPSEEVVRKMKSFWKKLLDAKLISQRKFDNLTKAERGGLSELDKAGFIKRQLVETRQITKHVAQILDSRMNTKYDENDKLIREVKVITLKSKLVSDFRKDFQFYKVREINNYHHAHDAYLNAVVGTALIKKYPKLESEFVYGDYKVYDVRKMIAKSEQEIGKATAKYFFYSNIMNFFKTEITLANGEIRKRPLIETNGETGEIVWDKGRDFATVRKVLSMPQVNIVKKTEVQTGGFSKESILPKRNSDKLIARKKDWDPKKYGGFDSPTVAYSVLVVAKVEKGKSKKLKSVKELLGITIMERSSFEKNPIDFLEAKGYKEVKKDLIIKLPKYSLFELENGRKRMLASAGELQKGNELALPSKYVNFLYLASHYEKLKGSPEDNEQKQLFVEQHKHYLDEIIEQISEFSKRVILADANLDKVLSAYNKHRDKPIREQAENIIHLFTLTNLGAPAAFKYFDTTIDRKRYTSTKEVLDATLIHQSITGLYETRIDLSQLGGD
Description: cell_activity; +++; HEK293T; PAM not stated. A digest of the protocol:
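Editing activity was scored as the fraction of GFP+ cells on day 4 by flow cytometry. BFP-expressing HEK293T cells (250,000) received by nucleofection 200 ng plasmid for the RT-Cas fusion protein and 200 ng template RNA plasmid designed to convert BFP to GFP.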

B1: BFP-to-GFP template RNA ; BFP reporter protospacer (ssRNA ; dsDNA)
RNA: GCCGAAGCACUGCACGCCGUGUUUUAGAGCUAGAAAUAGCAAGUUAAAAUAAGGCUAGUCCGUUAUCAACUUGAAAAAGUGGCACCGAGUCGGUGCACCCUGACGUACGGCGUGCAGUGCUU
DNA 1: GCCGAAGCACTGCACGCCGT
DNA 2: ACGGCGTGCAGTGCTTCGGC
As for B1, the activity was ≥ 100 % of reference.
